Measurements: patent publication US20180071366A1
Numbered stars: 1 amine (or outer) side, 2 acyl side, 3 side chain; on linkers, the order of the positions; unused ones are H or OH. Bridge positions count the residues as written; N and C are the ends. Square brackets hold non-standard residues; d marks the D form. * marks the point of attachment. C20 diacid = O=C(O)CCCCCCCCCCCCCCCCCCC(=O)*; γGlu = O=C(O)[C@H](CCC(=O)[*:2])N[*:1]; Hyp = O=C(O)[C@@H]1C[C@@H](O)CN1; NMeI = CC[C@H](C)[C@H](NC)C(=O)O; Aad = N[C@@H](CCCC(=O)O)C(=O)O; Orn = NCCC[C@H](N)C(=O)O; Sar = CNCC(=O)O

Experiments:
[1] = target: recombinant human amylin 3 receptor (hAMYR3) (human), P30988; assay: cell-based or functional assay
[2] = target: recombinant human calcitonin receptor (hCT-R) (human), P30988; assay: cell-based or functional assay
Chain of recombinant human calcitonin receptor (hCT-R) (human), P30988 (P30988 25-474): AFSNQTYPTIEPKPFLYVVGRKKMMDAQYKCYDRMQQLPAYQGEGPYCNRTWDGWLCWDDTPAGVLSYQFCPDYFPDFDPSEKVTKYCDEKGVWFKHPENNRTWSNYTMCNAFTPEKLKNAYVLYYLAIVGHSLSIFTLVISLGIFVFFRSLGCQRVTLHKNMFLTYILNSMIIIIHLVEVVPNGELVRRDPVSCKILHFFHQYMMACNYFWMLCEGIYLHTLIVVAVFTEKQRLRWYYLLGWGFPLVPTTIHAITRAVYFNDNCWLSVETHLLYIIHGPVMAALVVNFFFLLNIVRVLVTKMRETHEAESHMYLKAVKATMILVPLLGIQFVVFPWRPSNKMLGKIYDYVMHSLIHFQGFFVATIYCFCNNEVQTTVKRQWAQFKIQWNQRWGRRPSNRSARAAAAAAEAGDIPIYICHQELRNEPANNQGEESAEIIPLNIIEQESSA

Chain of recombinant human amylin 3 receptor (hAMYR3) (human), P30988 (P30988 25-474, chain 1 of 2): as the sequence (P30988 25-474) above
Chain of recombinant human amylin 3 receptor (hAMYR3) (human), P30988 (O60896 24-148, chain 2 of 2, further chain): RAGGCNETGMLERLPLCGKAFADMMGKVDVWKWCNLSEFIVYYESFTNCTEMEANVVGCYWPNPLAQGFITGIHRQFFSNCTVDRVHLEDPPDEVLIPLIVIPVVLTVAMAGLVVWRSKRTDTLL

Binder	hAMYR3 EC50 [nM] (cAMP formation, 1321N1 cells expressing hAMYR3) [1]	hCT-R EC50 [nM] (cAMP formation, 1321N1 cells expressing hCT-R) [2]
{C20 diacid-γGlu}-RDGTAT[Orn]ATERLAHFLQRF[Sar]A[NMeI]LSSTEVGSNT[Hyp]-NH2 (lactam 2-7; SMILES CC[C@H](C)[C@@H](C(=O)N[C@@H](CC(C)C)C(=O)N[C@@H](CO)C(=O)N[C@@H](CO)C(=O)N[C@H](C(=O)N[C@@H](CCC(=O)O)C(=O)N[C@H](C(=O)NCC(=O)N[C@@H](CO)C(=O)N[C@@H](CC(N)=O)C(=O)N[C@H](C(=O)N1C[C@H](O)C[C@H]1C(N)=O)[C@@H](C)O)C(C)C)[C@@H](C)O)N(C)C(=O)[C@H](C)NC(=O)CN(C)C(=O)[C@H](Cc1ccccc1)NC(=O)[C@H](CCCNC(=N)N)NC(=O)[C@H](CCC(N)=O)NC(=O)[C@H](CC(C)C)NC(=O)[C@H](Cc1ccccc1)NC(=O)[C@H](Cc1c[nH]cn1)NC(=O)[C@H](C)NC(=O)[C@H](CC(C)C)NC(=O)[C@H](CCCNC(=N)N)NC(=O)[C@H](CCC(=O)O)NC(=O)[C@@H](NC(=O)[C@H](C)NC(=O)[C@@H]1CCCNC(=O)C[C@H](NC(=O)[C@H](CCCNC(=N)N)NC(=O)CC[C@H](NC(=O)CCCCCCCCCCCCCCCCCCC(=O)O)C(=O)O)C(=O)NCC(=O)N[C@@H]([C@@H](C)O)C(=O)N[C@@H](C)C(=O)N[C@@H]([C@@H](C)O)C(=O)N1)[C@@H](C)O) [Compound 6]	0.011 nM	0.327 nM
{C20 diacid-γGlu}-RDGTAT[Orn]ATERLA[Aad]FLQRSSF[Sar]A[NMeI]LSSTEVGSNT[Hyp]-NH2 (SMILES CC[C@H](C)[C@@H](C(=O)N[C@@H](CC(C)C)C(=O)N[C@@H](CO)C(=O)N[C@@H](CO)C(=O)N[C@H](C(=O)N[C@@H](CCC(=O)O)C(=O)N[C@H](C(=O)NCC(=O)N[C@@H](CO)C(=O)N[C@@H](CC(N)=O)C(=O)N[C@H](C(=O)N1C[C@H](O)C[C@H]1C(N)=O)[C@@H](C)O)C(C)C)[C@@H](C)O)N(C)C(=O)[C@H](C)NC(=O)CN(C)C(=O)[C@H](Cc1ccccc1)NC(=O)[C@H](CO)NC(=O)[C@H](CO)NC(=O)[C@H](CCCNC(=N)N)NC(=O)[C@H](CCC(N)=O)NC(=O)[C@H](CC(C)C)NC(=O)[C@H](Cc1ccccc1)NC(=O)[C@H](CCCC(=O)O)NC(=O)[C@H](C)NC(=O)[C@H](CC(C)C)NC(=O)[C@H](CCCNC(=N)N)NC(=O)[C@H](CCC(=O)O)NC(=O)[C@@H](NC(=O)[C@H](C)NC(=O)[C@H](CCCN)NC(=O)[C@@H](NC(=O)[C@H](C)NC(=O)[C@@H](NC(=O)CNC(=O)[C@H](CC(=O)O)NC(=O)[C@H](CCCNC(=N)N)NC(=O)CC[C@H](NC(=O)CCCCCCCCCCCCCCCCCCC(=O)O)C(=O)O)[C@@H](C)O)[C@@H](C)O)[C@@H](C)O) [Ref. 3]	13.2 nM	18.2 nM
{C20 diacid-γGlu}-RDGTAT[Orn]ATERLAHFLHRSSF[Sar]A[NMeI]LSSTEVGSNTP-NH2 (lactam 2-7; SMILES CC[C@H](C)[C@@H](C(=O)N[C@@H](CC(C)C)C(=O)N[C@@H](CO)C(=O)N[C@@H](CO)C(=O)N[C@H](C(=O)N[C@@H](CCC(=O)O)C(=O)N[C@H](C(=O)NCC(=O)N[C@@H](CO)C(=O)N[C@@H](CC(N)=O)C(=O)N[C@H](C(=O)N1CCC[C@H]1C(N)=O)[C@@H](C)O)C(C)C)[C@@H](C)O)N(C)C(=O)[C@H](C)NC(=O)CN(C)C(=O)[C@H](Cc1ccccc1)NC(=O)[C@H](CO)NC(=O)[C@H](CO)NC(=O)[C@H](CCCNC(=N)N)NC(=O)[C@H](Cc1c[nH]cn1)NC(=O)[C@H](CC(C)C)NC(=O)[C@H](Cc1ccccc1)NC(=O)[C@H](Cc1c[nH]cn1)NC(=O)[C@H](C)NC(=O)[C@H](CC(C)C)NC(=O)[C@H](CCCNC(=N)N)NC(=O)[C@H](CCC(=O)O)NC(=O)[C@@H](NC(=O)[C@H](C)NC(=O)[C@@H]1CCCNC(=O)C[C@H](NC(=O)[C@H](CCCNC(=N)N)NC(=O)CC[C@H](NC(=O)CCCCCCCCCCCCCCCCCCC(=O)O)C(=O)O)C(=O)NCC(=O)N[C@@H]([C@@H](C)O)C(=O)N[C@@H](C)C(=O)N[C@@H]([C@@H](C)O)C(=O)N1)[C@@H](C)O) [Compound 7]	0.032 nM	0.289 nM
{C20 diacid-γGlu}-RCGTATCATERLA[Aad]FLQRSSF[Sar]A[NMeI]LSSTEVGSNT[Hyp]-NH2 (disulfide 2-7; SMILES CC[C@H](C)[C@@H](C(=O)N[C@@H](CC(C)C)C(=O)N[C@@H](CO)C(=O)N[C@@H](CO)C(=O)N[C@H](C(=O)N[C@@H](CCC(=O)O)C(=O)N[C@H](C(=O)NCC(=O)N[C@@H](CO)C(=O)N[C@@H](CC(N)=O)C(=O)N[C@H](C(=O)N1C[C@H](O)C[C@H]1C(N)=O)[C@@H](C)O)C(C)C)[C@@H](C)O)N(C)C(=O)[C@H](C)NC(=O)CN(C)C(=O)[C@H](Cc1ccccc1)NC(=O)[C@H](CO)NC(=O)[C@H](CO)NC(=O)[C@H](CCCNC(=N)N)NC(=O)[C@H](CCC(N)=O)NC(=O)[C@H](CC(C)C)NC(=O)[C@H](Cc1ccccc1)NC(=O)[C@H](CCCC(=O)O)NC(=O)[C@H](C)NC(=O)[C@H](CC(C)C)NC(=O)[C@H](CCCNC(=N)N)NC(=O)[C@H](CCC(=O)O)NC(=O)[C@@H](NC(=O)[C@H](C)NC(=O)[C@@H]1CSSC[C@H](NC(=O)[C@H](CCCNC(=N)N)NC(=O)CC[C@H](NC(=O)CCCCCCCCCCCCCCCCCCC(=O)O)C(=O)O)C(=O)NCC(=O)N[C@@H]([C@@H](C)O)C(=O)N[C@@H](C)C(=O)N[C@@H]([C@@H](C)O)C(=O)N1)[C@@H](C)O) [Ref. 4]	0.031 nM	0.075 nM
{C20 diacid-γGlu}-RDGTAT[Orn]ATQRLAHFLQRSSF[Sar]A[NMeI]LSSTEVGSNT[Hyp]-NH2 (lactam 2-7; SMILES CC[C@H](C)[C@@H](C(=O)N[C@@H](CC(C)C)C(=O)N[C@@H](CO)C(=O)N[C@@H](CO)C(=O)N[C@H](C(=O)N[C@@H](CCC(=O)O)C(=O)N[C@H](C(=O)NCC(=O)N[C@@H](CO)C(=O)N[C@@H](CC(N)=O)C(=O)N[C@H](C(=O)N1C[C@H](O)C[C@H]1C(N)=O)[C@@H](C)O)C(C)C)[C@@H](C)O)N(C)C(=O)[C@H](C)NC(=O)CN(C)C(=O)[C@H](Cc1ccccc1)NC(=O)[C@H](CO)NC(=O)[C@H](CO)NC(=O)[C@H](CCCNC(=N)N)NC(=O)[C@H](CCC(N)=O)NC(=O)[C@H](CC(C)C)NC(=O)[C@H](Cc1ccccc1)NC(=O)[C@H](Cc1c[nH]cn1)NC(=O)[C@H](C)NC(=O)[C@H](CC(C)C)NC(=O)[C@H](CCCNC(=N)N)NC(=O)[C@H](CCC(N)=O)NC(=O)[C@@H](NC(=O)[C@H](C)NC(=O)[C@@H]1CCCNC(=O)C[C@H](NC(=O)[C@H](CCCNC(=N)N)NC(=O)CC[C@H](NC(=O)CCCCCCCCCCCCCCCCCCC(=O)O)C(=O)O)C(=O)NCC(=O)N[C@@H]([C@@H](C)O)C(=O)N[C@@H](C)C(=O)N[C@@H]([C@@H](C)O)C(=O)N1)[C@@H](C)O) [Compound 8]	0.059 nM	0.129 nM
{C20 diacid-γGlu}-RDGTAT[Orn]ATQRLAHFLQRSSF[Sar]A[NMeI]PSSTEVGSNT[Hyp]-NH2 (lactam 2-7; SMILES CC[C@H](C)[C@@H](C(=O)N1CCC[C@H]1C(=O)N[C@@H](CO)C(=O)N[C@@H](CO)C(=O)N[C@H](C(=O)N[C@@H](CCC(=O)O)C(=O)N[C@H](C(=O)NCC(=O)N[C@@H](CO)C(=O)N[C@@H](CC(N)=O)C(=O)N[C@H](C(=O)N1C[C@H](O)C[C@H]1C(N)=O)[C@@H](C)O)C(C)C)[C@@H](C)O)N(C)C(=O)[C@H](C)NC(=O)CN(C)C(=O)[C@H](Cc1ccccc1)NC(=O)[C@H](CO)NC(=O)[C@H](CO)NC(=O)[C@H](CCCNC(=N)N)NC(=O)[C@H](CCC(N)=O)NC(=O)[C@H](CC(C)C)NC(=O)[C@H](Cc1ccccc1)NC(=O)[C@H](Cc1c[nH]cn1)NC(=O)[C@H](C)NC(=O)[C@H](CC(C)C)NC(=O)[C@H](CCCNC(=N)N)NC(=O)[C@H](CCC(N)=O)NC(=O)[C@@H](NC(=O)[C@H](C)NC(=O)[C@@H]1CCCNC(=O)C[C@H](NC(=O)[C@H](CCCNC(=N)N)NC(=O)CC[C@H](NC(=O)CCCCCCCCCCCCCCCCCCC(=O)O)C(=O)O)C(=O)NCC(=O)N[C@@H]([C@@H](C)O)C(=O)N[C@@H](C)C(=O)N[C@@H]([C@@H](C)O)C(=O)N1)[C@@H](C)O) [Compound 9]	0.013 nM	0.027 nM
{C20 diacid-γGlu}-RCGTATCATERLAHFLQRSSF[Sar]A[NMeI]LSSTEVGSNT[Hyp]-NH2 (disulfide 2-7; SMILES CC[C@H](C)[C@@H](C(=O)N[C@@H](CC(C)C)C(=O)N[C@@H](CO)C(=O)N[C@@H](CO)C(=O)N[C@H](C(=O)N[C@@H](CCC(=O)O)C(=O)N[C@H](C(=O)NCC(=O)N[C@@H](CO)C(=O)N[C@@H](CC(N)=O)C(=O)N[C@H](C(=O)N1C[C@H](O)C[C@H]1C(N)=O)[C@@H](C)O)C(C)C)[C@@H](C)O)N(C)C(=O)[C@H](C)NC(=O)CN(C)C(=O)[C@H](Cc1ccccc1)NC(=O)[C@H](CO)NC(=O)[C@H](CO)NC(=O)[C@H](CCCNC(=N)N)NC(=O)[C@H](CCC(N)=O)NC(=O)[C@H](CC(C)C)NC(=O)[C@H](Cc1ccccc1)NC(=O)[C@H](Cc1c[nH]cn1)NC(=O)[C@H](C)NC(=O)[C@H](CC(C)C)NC(=O)[C@H](CCCNC(=N)N)NC(=O)[C@H](CCC(=O)O)NC(=O)[C@@H](NC(=O)[C@H](C)NC(=O)[C@@H]1CSSC[C@H](NC(=O)[C@H](CCCNC(=N)N)NC(=O)CC[C@H](NC(=O)CCCCCCCCCCCCCCCCCCC(=O)O)C(=O)O)C(=O)NCC(=O)N[C@@H]([C@@H](C)O)C(=O)N[C@@H](C)C(=O)N[C@@H]([C@@H](C)O)C(=O)N1)[C@@H](C)O) [Ref. 2]	0.003 nM	0.019 nM
